pKd: −log10 of the molar value.
Molecular target: PDGF-DD (active, proteolytically processed homodimer) as used in solid-phase binding and SPR (human) (UniProt Q9GZP0)
Assay: SPR (Biacore T100), PDGF-DD immobilised on CM5 chip, NKp44 18-130-His6 in the mobile phase, steady-state fit for a 1:1 interaction

Sequence of PDGF-DD (active, proteolytically processed homodimer) as used in solid-phase binding and SPR (human) (Q9GZP0 184-370 limits assumed, form in doubt): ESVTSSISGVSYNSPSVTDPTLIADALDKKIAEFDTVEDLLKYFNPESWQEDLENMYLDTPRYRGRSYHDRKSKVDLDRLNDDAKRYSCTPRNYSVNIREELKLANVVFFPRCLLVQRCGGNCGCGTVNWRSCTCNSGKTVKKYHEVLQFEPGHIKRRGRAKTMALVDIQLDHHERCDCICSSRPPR

pKd: 5.48
Substance: Bacterial expressed NKp44 (residues 18-130 with a C-terminal His6 tag) (from UniProt O95944 18-130) (receptor)

— patent US20200046770A1
